Results reported in article PMC5667555.

Biological target: ARTS-VN (UniProt O43236)
Test: split reporter

percent decrease of the BiFC signal compared to WT Bcl-2: 47%
Substance: Bcl-2delBH3-VC (from UniProt P10415 1-239) (natural protein)
